The record followed here is US20060229240A1 (GARDELL ET AL, published 2006).

In experiment [1] the target is T1, PTH/PTHrP receptor (P1R), wild-type, full-length (human, UniProt Q03431 27-593).
T1 sequence (looked up): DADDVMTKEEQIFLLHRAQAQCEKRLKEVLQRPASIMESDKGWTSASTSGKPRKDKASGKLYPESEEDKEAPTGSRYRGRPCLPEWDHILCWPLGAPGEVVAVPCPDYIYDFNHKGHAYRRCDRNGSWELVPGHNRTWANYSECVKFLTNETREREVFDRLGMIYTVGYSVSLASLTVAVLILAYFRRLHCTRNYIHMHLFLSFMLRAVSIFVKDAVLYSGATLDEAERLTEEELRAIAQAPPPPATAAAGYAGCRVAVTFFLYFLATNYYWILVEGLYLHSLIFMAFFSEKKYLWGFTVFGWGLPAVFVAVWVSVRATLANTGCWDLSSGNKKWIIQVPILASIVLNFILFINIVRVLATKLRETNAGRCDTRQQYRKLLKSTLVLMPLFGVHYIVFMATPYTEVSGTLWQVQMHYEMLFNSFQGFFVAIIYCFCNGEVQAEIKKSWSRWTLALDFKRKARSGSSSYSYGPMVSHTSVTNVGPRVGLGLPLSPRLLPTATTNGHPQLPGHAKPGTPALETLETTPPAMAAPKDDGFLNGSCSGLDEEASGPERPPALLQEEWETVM
The experiment in a line: cell-based or functional assay.

Experiment [2] concerns the target T2, P1R-DelNt (truncated human P1R deleted for residues 24-181) (human, UniProt Q03431 182-593).
T2 sequence (looked up): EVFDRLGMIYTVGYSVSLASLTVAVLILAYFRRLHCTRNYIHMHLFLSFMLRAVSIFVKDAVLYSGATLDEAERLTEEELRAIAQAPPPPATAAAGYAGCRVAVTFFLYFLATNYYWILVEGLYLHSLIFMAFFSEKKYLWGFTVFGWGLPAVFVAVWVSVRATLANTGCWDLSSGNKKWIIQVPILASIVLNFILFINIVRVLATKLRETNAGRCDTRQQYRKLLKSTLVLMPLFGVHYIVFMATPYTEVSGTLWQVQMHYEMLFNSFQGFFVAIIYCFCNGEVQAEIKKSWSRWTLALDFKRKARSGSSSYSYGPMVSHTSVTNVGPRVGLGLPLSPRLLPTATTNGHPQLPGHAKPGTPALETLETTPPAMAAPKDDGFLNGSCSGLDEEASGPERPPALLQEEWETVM
The experiment in a line: cell-based or functional assay.

Experiment [3] deals with T1, PTH/PTHrP receptor (P1R), wild-type, …. Kind of experiment: cell-based or functional assay. The source holds these as a separate data set.
Experiment [4] shares this target. Kind of experiment: cell-based or functional assay. This is another data set of the same source.
For experiment [5], the target named is T2, P1R-DelNt (truncated human P1R deleted …). Kind of experiment: cell-based or functional assay. The source holds these as a separate data set.
For experiment [6], the target named is T1, PTH/PTHrP receptor (P1R), wild-type, …. Kind of experiment: cell-based or functional assay. This is another data set of the same source.
Experiment [7] has the same target. Kind of experiment: competition with 125I-[Ala3,12,Gln10,Har11,Trp14,Arg19,Tyr21]PTH(1-21)-amide tracer on HKRK-B28 cells expressing P1R. The protocol:
Competition Binding. Binding reactions were performed with […] cells or in COS-7 cells in 24-well plates. The cells were rinsed with 0.5 mL of binding buffer, and then treated successively with 100 μL binding buffer, 100 μL of binding buffer containing various amounts of unlabeled competitor ligand, and 100 μL of binding buffer containing ca. 100,000 cpm of ¹²⁵I-[M]PTH(1-21)(SEQ. ID. NO. 16) or ¹²⁵I-[Aib^{1,3},M]PTH(1-21)(SEQ. ID. NO. 17) (ca. 26 fmol; final volume=300 μL). Incubations were 4 to 6 h at 4° C., at which time near equilibrium conditions were attained. Cells were then placed on ice, the binding medium was removed, and the monolayer was rinsed three times with 0.5 mL of cold binding buffer. The cells were subsequently lysed with 0.5 mL 5N NaOH and counted for radioactivity. For each tracer and in each experiment, the non-specific binding was determined as the radioactivity that bound in the presence of the same unlabeled peptide at a concentration of 1 μM, and was ˜1% of total radioactivity added for each tracer. The maximum specific binding (B₀) was the total radioactivity bound in the absence of competing ligand, corrected for nonspecific binding, and for each tracer, ranged from 8% to 20% of the total radioactivity added. Nonlinear regression was used to calculate binding IC₅₀ values (see below). Scatchard transformations of homologous competition binding data derived from studies with 26 fmol of ¹²⁵I-[Aib^{1,3},M]PTH(1-21) (SEQ. ID. NO. 17) were employed for estimations of apparent equilibrium dissociation constant (kDapps) and total number of ligand binding sites (Bₘₐₓ), assuming a single class of binding sites and equal affinities of the iodinated and non iodinated ligand.
The peptide PTH(1-34) ([Tyr³⁴]bPTH(1-34)NH₂) (SEQ. ID. NO. 10) and analogs containing substitutions at positions 6 and/or 10 in place of Gln and Asn, respectively, were evaluated in HKRK-B28 cells for the capacity to stimulate cAMP accumulation, and to inhibit the binding of ¹²⁵I-[Ala^{3,12}, Gln¹⁰, Har¹¹, Trp¹⁴,Arg¹⁹, Tyr²¹]PTH(1-21)-amide (SEQ. ID. NO. 30) tracer radioligand.

Like-named read-outs stand apart in the source and are kept apart here. Positions of bridges follow the written chain, without caps; N, C: chain ends. Non-standard residues stand in square brackets, D forms with d. No end group written: not given here. hArg = N=C(N)NCCCC[C@H](N)C(=O)O; Aib = CC(C)(N)C(=O)O

B1: [Glu^6, Lys^10]PTH(1-14) (linear) (peptide)
peptide: AVAEIELMHK[hArg]AKW-NH2
modifications: N-terminus assumed
SMILES: CC[C@H](C)[C@H](NC(=O)[C@H](CCC(=O)O)NC(=O)[C@H](C)NC(=O)[C@@H](NC(=O)[C@H](C)N)C(C)C)C(=O)N[C@@H](CCC(=O)O)C(=O)N[C@@H](CC(C)C)C(=O)N[C@@H](CCSC)C(=O)N[C@@H](Cc1c[nH]cn1)C(=O)N[C@@H](CCCCN)C(=O)N[C@@H](CCCCNC(=N)N)C(=O)N[C@@H](C)C(=O)N[C@@H](CCCCN)C(=O)N[C@@H](Cc1c[nH]c2ccccc12)C(N)=O
For the molecule B1, in experiment [1], the “cAMP EC50” value worked out at 40 µM and the “cAMP Emax (%)” value is 52%.

B2: [Aib^1,3, Ala^6,10]PTH(1-14) (peptide)
peptide: [Aib]V[Aib]EIALMHA[hArg]AKW-NH2
modifications: N-terminus assumed
SMILES: CC[C@H](C)[C@H](NC(=O)[C@H](CCC(=O)O)NC(=O)C(C)(C)NC(=O)[C@@H](NC(=O)C(C)(C)N)C(C)C)C(=O)N[C@@H](C)C(=O)N[C@@H](CC(C)C)C(=O)N[C@@H](CCSC)C(=O)N[C@@H](Cc1c[nH]cn1)C(=O)N[C@@H](C)C(=O)N[C@@H](CCCCNC(=N)N)C(=O)N[C@@H](C)C(=O)N[C@@H](CCCCN)C(=O)N[C@@H](Cc1c[nH]c2ccccc12)C(N)=O
Take B2: in experiment [2], the “cAMP EC50” value was found to be 0.024 µM and the “cAMP Emax (%)” value was 100%.
On to AVAEIQLMHAR-NH2 [[Ala^10]PTH(1-11)], for which, in experiment [3], the “cAMP EC50” value was determined as 11 µM and the “cAMP Emax (%)” value turned out to be 88%. For the same molecule, in experiment [2], the “cAMP EC50” value was 39 µM and the “cAMP Emax (%)” value was 79%.

B3: [M]PTH(1-14) ([Ala^1,3,12,Gln^10,Har^11,Trp^14]PTH(1-14)amide; AlaValAlaGluIleGlnLeuMetHisGlnHarAlaLysTrp-amide) (peptide)
peptide: AVAEIQLMHQ[hArg]AKW-NH2
modifications: N-terminus assumed
SMILES: CC[C@H](C)[C@H](NC(=O)[C@H](CCC(=O)O)NC(=O)[C@H](C)NC(=O)[C@@H](NC(=O)[C@H](C)N)C(C)C)C(=O)N[C@@H](CCC(N)=O)C(=O)N[C@@H](CC(C)C)C(=O)N[C@@H](CCSC)C(=O)N[C@@H](Cc1c[nH]cn1)C(=O)N[C@@H](CCC(N)=O)C(=O)N[C@@H](CCCCNC(=N)N)C(=O)N[C@@H](C)C(=O)N[C@@H](CCCCN)C(=O)N[C@@H](Cc1c[nH]c2ccccc12)C(N)=O
Consider B3, for which, in experiment [1], the “cAMP EC50” value came out at 0.12 µM and the “cAMP Emax (%)” value is 100%.

B4: PTH(1-34) ([Tyr^34]hPTH(1-34)amide) (peptide)
peptide: SVSEIQLMHNLGKHLNSMERVEWLRKKLQDVHNY-NH2
notes: Human PTH(1-34) analog with Tyr at 34; also called [Tyr^34]hPTH(1-34)NH2; PTH(1-34) scaffold peptide
For B4, the “cAMP EC50” value stood at 0.27 µM in experiment [4] and 1.9 µM in experiment [6]. The “cAMP Emax (%)” value in experiment [4] amounted to 100%; in experiment [5] it was 44%; in experiment [6], 100%. Moreover, the half-inhibitory concentration (IC50) (usually the concentration at which inhibition is half-maximal) in experiment [7] is 6 µM.

B5: [Aib^1,3, Ala^6]PTH(1-14) (peptide)
peptide: [Aib]V[Aib]EIALMHQ[hArg]AKW-NH2
modifications: N-terminus assumed
SMILES: CC[C@H](C)[C@H](NC(=O)[C@H](CCC(=O)O)NC(=O)C(C)(C)NC(=O)[C@@H](NC(=O)C(C)(C)N)C(C)C)C(=O)N[C@@H](C)C(=O)N[C@@H](CC(C)C)C(=O)N[C@@H](CCSC)C(=O)N[C@@H](Cc1c[nH]cn1)C(=O)N[C@@H](CCC(N)=O)C(=O)N[C@@H](CCCCNC(=N)N)C(=O)N[C@@H](C)C(=O)N[C@@H](CCCCN)C(=O)N[C@@H](Cc1c[nH]c2ccccc12)C(N)=O
As to B5, in experiment [2], the “cAMP EC50” value was found to be 0.146 µM and the “cAMP Emax (%)” value was determined as 101%.

B6: [(Glu^6, Lys^10)lac.]PTH(1-14), cyclized via a 6-10 lactam bridge (peptide)
peptide: AVAEIELMHK[hArg]AKW-NH2
modifications: lactam 6-10; N-terminus assumed
SMILES: CC[C@H](C)[C@H](NC(=O)[C@H](CCC(=O)O)NC(=O)[C@H](C)NC(=O)[C@@H](NC(=O)[C@H](C)N)C(C)C)C(=O)N[C@H]1CCC(=O)NCCCC[C@@H](C(=O)N[C@@H](CCCCNC(=N)N)C(=O)N[C@@H](C)C(=O)N[C@@H](CCCCN)C(=O)N[C@@H](Cc2c[nH]c3ccccc23)C(N)=O)NC(=O)[C@H](Cc2c[nH]cn2)NC(=O)[C@H](CCSC)NC(=O)[C@H](CC(C)C)NC1=O
In the case of B6, in experiment [1], the “cAMP EC50” value is 27 µM and the “cAMP Emax (%)” value stood at 52%.

B7: [Lys^6, Glu^10]PTH(1-14) (peptide)
peptide: AVAEIKLMHE[hArg]AKW-NH2
modifications: N-terminus assumed
SMILES: CC[C@H](C)[C@H](NC(=O)[C@H](CCC(=O)O)NC(=O)[C@H](C)NC(=O)[C@@H](NC(=O)[C@H](C)N)C(C)C)C(=O)N[C@@H](CCCCN)C(=O)N[C@@H](CC(C)C)C(=O)N[C@@H](CCSC)C(=O)N[C@@H](Cc1c[nH]cn1)C(=O)N[C@@H](CCC(=O)O)C(=O)N[C@@H](CCCCNC(=N)N)C(=O)N[C@@H](C)C(=O)N[C@@H](CCCCN)C(=O)N[C@@H](Cc1c[nH]c2ccccc12)C(N)=O
In the case of B7, in experiment [1], the “cAMP EC50” value turned out to be 130 µM and the “cAMP Emax (%)” value worked out at 37%.
Take AVAEIALMHQR-NH2 [[Ala^6]PTH(1-11)]: in experiment [3], the “cAMP EC50” value came to 330 µM and the “cAMP Emax (%)” value was 26%. Further, in experiment [2], the “cAMP EC50” value was 320 µM and the “cAMP Emax (%)” value came out at 14%.

B8: [Aib^1,3, Ala^10]PTH(1-14) (peptide)
peptide: [Aib]V[Aib]EIQLMHA[hArg]AKW-NH2
modifications: N-terminus assumed
SMILES: CC[C@H](C)[C@H](NC(=O)[C@H](CCC(=O)O)NC(=O)C(C)(C)NC(=O)[C@@H](NC(=O)C(C)(C)N)C(C)C)C(=O)N[C@@H](CCC(N)=O)C(=O)N[C@@H](CC(C)C)C(=O)N[C@@H](CCSC)C(=O)N[C@@H](Cc1c[nH]cn1)C(=O)N[C@@H](C)C(=O)N[C@@H](CCCCNC(=N)N)C(=O)N[C@@H](C)C(=O)N[C@@H](CCCCN)C(=O)N[C@@H](Cc1c[nH]c2ccccc12)C(N)=O
For the molecule B8, in experiment [2], the “cAMP EC50” value stood at 0.081 µM and the “cAMP Emax (%)” value was 104%.
Turning to AVAEIALMHAR-NH2 [[Ala^6, Ala^10]PTH(1-11)], the figures for the “cAMP EC50” value in experiment [3] and in experiment [2] were 160 µM and 170 µM, respectively. Besides, the “cAMP Emax (%)” value amounted to 41% in experiment [3] and 42% in experiment [2].
